How the values were obtained:
Assay in all cases: cross-linking; cysteine cross-linking with CuCl2 in E. coli co-producing the T2SS lacking pulF (pCHAP8252) and PulF or PulFΔN Cys variants (pCHAP8259 derivatives); total extracts on 4%–15% SDS gradient gels, blot with anti-PulFC
[1] = biological target: PulF^V171C-P371C (K. oxytoca) (UniProt P15745)
[2] = biological target: PulF^Y168C-E370C (K. oxytoca) (UniProt P15745)
[3] = biological target: PulFΔN^V171C-P371C (K. oxytoca) (UniProt P15745)
[4] = biological target: PulFΔN^Y168C-E370C (K. oxytoca) (UniProt P15745)

Question: How did the stoichiometry N [1] turn out when “PulF^V171C-P371C (from UniProt P15745 1-381) (natural protein)” was run?
Answer: 3

Question: For “PulF^Y168C-E370C (from UniProt P15745 1-381) (natural protein)”, which stoichiometry N [2] is on record?
Answer: 3

Question: With “PulFΔN^V171C-P371C (from UniProt P15745 35-381) (domain or fragment)” as the substance, how does the stoichiometry N [3] read?
Answer: 3

Question: With “PulFΔN^Y168C-E370C (from UniProt P15745 35-381) (domain or fragment)” as the substance, how does the stoichiometry N [4] read?
Answer: 3

Reference: article PMC10790770
